# Where two headings read alike, the source gives them in different places.
# T1: PlzA WT (Borrelia burgdorferi B31, UniProt O51675 1-261)
# T1 sequence: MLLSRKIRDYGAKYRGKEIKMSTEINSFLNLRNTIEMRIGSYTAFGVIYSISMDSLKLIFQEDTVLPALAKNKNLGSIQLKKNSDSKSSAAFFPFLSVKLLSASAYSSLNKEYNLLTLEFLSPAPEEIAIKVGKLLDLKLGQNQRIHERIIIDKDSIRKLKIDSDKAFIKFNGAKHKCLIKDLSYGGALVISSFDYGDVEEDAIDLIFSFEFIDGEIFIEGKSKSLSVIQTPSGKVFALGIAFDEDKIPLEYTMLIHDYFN
# T2: PlzA CTD (Borrelia burgdorferi B31, UniProt O51675 142-261)
# T2 sequence: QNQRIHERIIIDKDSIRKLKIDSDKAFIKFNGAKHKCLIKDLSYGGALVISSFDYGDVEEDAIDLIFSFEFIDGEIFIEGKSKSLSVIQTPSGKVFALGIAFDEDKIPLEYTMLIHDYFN
# T3: PlzA RD-RD (Borrelia burgdorferi B31, UniProt O51675 1-261, R145D;R149D)
# T3 sequence: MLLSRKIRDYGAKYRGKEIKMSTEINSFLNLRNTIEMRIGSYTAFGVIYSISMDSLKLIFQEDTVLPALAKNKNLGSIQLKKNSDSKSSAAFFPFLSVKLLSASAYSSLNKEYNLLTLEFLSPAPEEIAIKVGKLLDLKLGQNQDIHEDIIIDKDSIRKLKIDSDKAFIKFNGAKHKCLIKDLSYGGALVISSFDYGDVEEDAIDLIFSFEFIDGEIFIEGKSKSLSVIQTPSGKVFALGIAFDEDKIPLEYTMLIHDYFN
# Legend:
# Assay in all cases: EMSA
# PlzA WT [1] = target: T1, PlzA WT
# PlzA WT [2] = target: T1, PlzA WT; remark: listed apart in the source
# PlzA WT [3] = target: T1, PlzA WT; remark: listed apart in the source
# PlzA CTD = target: T2, PlzA CTD
# PlzA RD-RD [4] = target: T3, PlzA RD-RD
# PlzA WT [5] = target: T1, PlzA WT; remark: listed apart in the source
# PlzA WT [6] = target: T1, PlzA WT; remark: listed apart in the source
# PlzA RD-RD [7] = target: T3, PlzA RD-RD; remark: listed apart in the source
Binder,Kd (PlzA WT [1]),Kd (PlzA WT [2]),Kd (PlzA WT [3]),binding result (PlzA CTD),binding result (PlzA RD-RD [4]),Kd (PlzA WT [5]),Kd (PlzA WT [6]),binding result (PlzA RD-RD [7])
glpFKD(-7/+35) (dsDNA) DNA 1: ATTAAATATAATTTTAATAAGGCTTTTATTAGAAAAATTAAT DNA 2: ATTAATTTTTCTAATAAAAGCCTTATTAAAATTATATTTAAT,1250 nM,4.22 µM,2810 nM,no binding,no binding,1090 nM,1330 nM,–
ATTAAATATAATTTTAATAAGGCTTTTATTAGAAAAATTAAT (ssDNA) [ssglpF],–,–,–,–,–,4420 nM,–,–
AUAAUUUUAAUAAGGCUUUUAUUAGAAAAAUUAAU (ssRNA) [glpFKD(UTR) RNA],–,4.14 µM,–,no binding,–,950 nM,–,no binding

# — paper PMC9915621
